Key:
Test in all cases: ITC
[1] = biological target: H3K4me0 peptide (ITC, Figures 5D and 5E) (UniProt P68431)
H3K4me0K14ac peptide = biological target: H3K4me0K14ac peptide
H3K4me0 (1-25aa) peptide = H3K4me0 (1-25aa) peptide (UniProt P68431)

Row | Substance | Kd [1] [µM] | Kd (H3K4me0K14ac peptide) [µM] | fold increase of binding activity against ZMYND8-PBP (H3K4me0 (1-25aa) peptide) [fold]
1 | ZMYND8-PB (ITC) (domain or fragment) | 15 |  | 
2 | ZMYND8-PBP (93-426aa) (domain or fragment) | 7.2 | 1 | 
3 | ZMYND8-PBP F109D (domain or fragment) |  |  | 11
